Laboratory results as given in patent US20210388074A1 (LUDWIG INSTITUTE FOR CANCER RESEARCH, published 2021).

How the values were obtained:
[1] = target: T1, TGFb3 (species not stated) (UniProt P10600 301-412); assay: Biacore single-cycle kinetics
T1 chain: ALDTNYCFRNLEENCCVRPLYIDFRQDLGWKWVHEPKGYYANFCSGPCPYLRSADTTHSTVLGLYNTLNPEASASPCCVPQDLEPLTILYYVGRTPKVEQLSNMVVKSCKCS

[2] = target: T2, TGFb3 (species not stated) (Homo sapiens (Human), UniProt P10600 301-412); assay: SPR (Biacore), single-cycle kinetics; TGFb3 immobilized directly, Fab as soluble analyte
T2 construct: also called TGFβ3; TGF-β3
T2 sequence: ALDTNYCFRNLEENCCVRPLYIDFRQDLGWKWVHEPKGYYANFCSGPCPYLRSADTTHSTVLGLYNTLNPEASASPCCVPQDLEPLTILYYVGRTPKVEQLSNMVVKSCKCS
Method: TGFb3 immobilized directly; Fab as soluble analyte (0 2.5 nM). Single cycle kinetics were conducted as follows Contact: 360 s; Dissociation: 500 s; Flow rate: 30 μl/min.
Binding affinities of the Fabs were in the pM range.

[3] = target: T3, human recombinant TGF-b3 (Shenandoah Biotechnology, cat. #100-109) (human, UniProt P10600 301-412); assay: competition ELISA on hTGF-ß3-coated plate; competitor biotinylated murine 1901
T3 construct: Bought recombinant protein, coated on ELISA plates; also called TGF-β3; hTGF-ß3
T3 sequence: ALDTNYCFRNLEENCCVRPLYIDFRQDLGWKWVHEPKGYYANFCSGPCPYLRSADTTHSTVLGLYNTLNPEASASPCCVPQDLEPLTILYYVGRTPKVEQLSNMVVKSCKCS
Method: Nunc Maxisorb ELISA plates were coated overnight at 8° C. with 0.5 μg/ml hTGF-ß1 (Peter Sun, NIH) or hTGF-ß3 (Shenandoah Biotech) at 0.5 μg/ml in 40 mM glycine buffer pH 9. Plates were washed and blocked with 10% FCS for 1 h at 37° C. […] After incubation for 2h at 37° C. plates were washed, Avidine-HRP added and incubated for 1 h at 37° C. Plates washed again, TMB substrate was added and bound biotinylated antibody was quantitated by measuring color development in an ELISA reader at a wave length of 450 nm.
The potency of the humanized LCR1901 IgG4 antibody variants to compete with the parental murine antibody for binding to TGFb3 was assessed by ELISA.

[4] = target: T3, human recombinant TGF-b3 (Shenandoah …); assay: TGFβ specificity ELISA; HEK293-6E supernatant
[5] = target: T3, human recombinant TGF-b3 (Shenandoah …); assay: ELISA; scFv culture on plate-coated TGF-b3
Method: (§1) To perform the ELISA a 96-well maxisorp Nunc-immunoplate (Thermo Scientific, cat. #2022-10) was coated with 50 μl/well of human recombinant TGF-b1 (Acrobiosystems, cat. #TG1-H4212), TGF-b2 (R&D Systems, cat. #302-B2-010) and human recombinant TGF-b3 (Shenandoah Biotechnology, cat. #100-109) at 500 ng/ml in PBS at 4° C. overnight. Wells were blocked by the direct addition of 230 μl of block solution (5% skimmed milk/0.05% Tween20 in PBS) without first washing the plate. Blocking was carried out for 45 min with gentle agitation. Concurrently, the bacterial cultures containing the expressed scFv and the rescued phage were blocked by the direct addition of 120 μl of block solution. The blocked maxisorp plate was washed 3× with PBST (PBS+0.1% Tween20) before applying 150 μl of blocked scFv or phage culture to the wells. Incubation was performed for 1 h at room temperature with gentle agitation before washing of the wells with 4×PBST.
(§2) For the scFv ELISA, 100 μl of primary mouse 9E10 anti-cmyc Ab diluted 1/1000 in PBS+1% BSA was added to wells, followed by a 1 h incubation at room temperature with gentle agitation. […] The ELISA was developed by the addition of 100 μl/well of TMB substrate (ThermoFischer Scientific, cat. #34021), stabilized with 50 μl/well of stop solution (2N sulfuric acid) and absorbance signals read at 450 nm and 620 nm.

[6] = target: T3, human recombinant TGF-b3 (Shenandoah …); assay: ELISA; scFv culture on plate-coated TGF-b3, anti-cmyc detection
Method: as §1, §2

[7] = target: T3, human recombinant TGF-b3 (Shenandoah …); assay: phage ELISA on plate-coated TGF-b3, anti-fd bacteriophage detection
Method: as §1
For the phage ELISA, 100 μl of primary rabbit anti-fd bacteriophage Ab (Sigma, cat. #B7786) diluted 1/1000 in PBS+1% BSA was added to wells followed by a 1 h incubation at room temperature with gentle agitation. The plate was washed 4× with PBST before the addition of 100 μl of secondary mouse anti-rabbit IgG (Υ-chain specific) HRP conjugate (Sigma, cat. #A1949) diluted 1/15000 in PBS+1% BSA. […]

B1: 1901-1D Fab (LCR1901_VH_1G10m_03(K)-LCR1901_VK_GLv1_03(F) expressed as Fab) (Fab, V domains shown)
VH: QVQLVQSGAEVKKPGSSVKVSCKASGYTFSSSWIHWVKQRPGKGLEWIGRIYPGDGDTDYSEKFQGRVTITADKSTSTAYMELSSLRSEDTAVYYCARRMITTQAALDYWGQGTLVTVSS
VL: DIQMTQSPSSLSASVGDRVTITCKASQSVINAVAWYQQKPGQSPKLLIYYASNRYTGVPDRFSGSGYGTDFTFTISSLQAEDVAVYYCQQDYSSPYTFGGGTKVEIK
[1]
  Kd: 0.364 nM
[2]
  binding result: binds

B2: 1901-1C Fab (LCR1901_VH_1G10m-LCR1901_VK_GLv1_03(F) expressed as Fab) (Fab, V domains shown)
VH: QVQLVQSGAEVKKPGSSVKVSCKASGYTFSSSWIHWVRQAPGQGLEWIGRIYPGDGDTDYSEKFQGRVTITADKSTSTAYMELSSLRSEDTAVYYCARRMITTQAALDYWGQGTLVTVSS
VL: DIQMTQSPSSLSASVGDRVTITCKASQSVINAVAWYQQKPGQSPKLLIYYASNRYTGVPDRFSGSGYGTDFTFTISSLQAEDVAVYYCQQDYSSPYTFGGGTKVEIK
[1]
  Kd: 0.3 nM
[2]
  binding result: binds

B3: 1901-1A, LCR1901_VH_1G10m-LCR1901_VK_GLv1_05(H), human IgG4 (S228P) (antibody, V domains shown)
VH: QVQLVQSGAEVKKPGSSVKVSCKASGYTFSSSWIHWVRQAPGQGLEWIGRIYPGDGDTDYSEKFQGRVTITADKSTSTAYMELSSLRSEDTAVYYCARRMITTQAALDYWGQGTLVTVSS
VL: DIQMTQSPSSLSASVGDRVTITCKASQSVINAVAWYQQKPGKAPKLLIYYASNRYTGVPDRFSGSGYGTDFTFTISSLQAEDVAVYYCQQDYSSPYTFGGGTKVEIKR
notes: the latter are used; also called LCR1901-1A
[3]
  binding result: binds

B4: 1901-1B Fab (LCR1901_VH_1G10m_03(K)-LCR1901_VK_GLv1_05(H) expressed as Fab) (Fab, V domains shown)
VH: QVQLVQSGAEVKKPGSSVKVSCKASGYTFSSSWIHWVKQRPGKGLEWIGRIYPGDGDTDYSEKFQGRVTITADKSTSTAYMELSSLRSEDTAVYYCARRMITTQAALDYWGQGTLVTVSS
VL: DIQMTQSPSSLSASVGDRVTITCKASQSVINAVAWYQQKPGKAPKLLIYYASNRYTGVPDRFSGSGYGTDFTFTISSLQAEDVAVYYCQQDYSSPYTFGGGTKVEIK
[1]
  Kd: 0.285 nM

B5: 1901_Glv1 (graft) human IgG1 (antibody, V domains shown)
VH: QVQLVQSGAEVKKPGSSVKVSCKASGYAFSSSWIHWVRQAPGQGLEWIGRIYPGDGDTNYTGKFKGRVTITADKSTSTAYMELSSLRSEDTAVYYCARRMITTQAAMDYWGQGTSVTVSS
VL: DIQMTQSPSSLSASVGDRVTITCKASQSVINAVAWYQQKPGKAPKLLIYYASNRYTGVPSRFSGSGSGTDFTLTISSLQPEDFATYYCQQDYSSPYTFGGGTKVEIK
notes: Tested as HEK293-6E supernatant; also called LCR1901_GLv1 mAb (IgG1)
[4]
  binding result: binds

B6: 1901-1A Fab (LCR1901_VH_1G10m-LCR1901_VK_GLv1_05(H) expressed as Fab) (Fab, V domains shown)
VH: QVQLVQSGAEVKKPGSSVKVSCKASGYTFSSSWIHWVRQAPGQGLEWIGRIYPGDGDTDYSEKFQGRVTITADKSTSTAYMELSSLRSEDTAVYYCARRMITTQAALDYWGQGTLVTVSS
VL: DIQMTQSPSSLSASVGDRVTITCKASQSVINAVAWYQQKPGKAPKLLIYYASNRYTGVPDRFSGSGYGTDFTFTISSLQAEDVAVYYCQQDYSSPYTFGGGTKVEIK
[2]
  binding result: binds

B7: 1901-1D, LCR1901_VH_1G10m_03(K)-LCR1901_VK_GLv1_03(F), human IgG4 (S228P) (antibody, V domains shown)
VH: QVQLVQSGAEVKKPGSSVKVSCKASGYTFSSSWIHWVKQRPGKGLEWIGRIYPGDGDTDYSEKFQGRVTITADKSTSTAYMELSSLRSEDTAVYYCARRMITTQAALDYWGQGTLVTVSS
VL: DIQMTQSPSSLSASVGDRVTITCKASQSVINAVAWYQQKPGQSPKLLIYYASNRYTGVPDRFSGSGYGTDFTFTISSLQAEDVAVYYCQQDYSSPYTFGGGTKVEIKR
notes: the latter are used; also called LCR1901-1D
[3]
  binding result: binds

B8: 1901-1C, LCR1901_VH_1G10m-LCR1901_VK_GLv1_03(F), human IgG4 (S228P) (antibody, V domains shown)
VH: QVQLVQSGAEVKKPGSSVKVSCKASGYTFSSSWIHWVRQAPGQGLEWIGRIYPGDGDTDYSEKFQGRVTITADKSTSTAYMELSSLRSEDTAVYYCARRMITTQAALDYWGQGTLVTVSS
VL: DIQMTQSPSSLSASVGDRVTITCKASQSVINAVAWYQQKPGQSPKLLIYYASNRYTGVPDRFSGSGYGTDFTFTISSLQAEDVAVYYCQQDYSSPYTFGGGTKVEIKR
notes: also called LCR1901-1C
[3]
  binding result: binds

B9: 1901_Chimeric (mouse 1901 variable domains fused to human IgG1 Fc) (antibody, V domains shown)
VH: QVLLQQSGPELVKPGASVKISCKASGYAFSSSWIHWVKQRPGKGLEWIGRIYPGDGDTNYTGKFKGKATLTADKSSSTAYMQLSSLTSEDSAVYFCARRMITTQAAMDYWGQGTSVTVSS
VL: SFVMTQTPKFLLVSAGDRVTITCKASQSVINAVAWYQQKPGQSPKLLIYYASNRYTGVPDRFTGNGYGTDFTFTISTVQAEDLAVYFCQQDYSSPYTFGGGTKLEIK
notes: Tested as HEK293-6E supernatant; also called murine chimeras
[4]
  binding result: binds

B10: LCR1901_GLv1_scFv (murine 1901 CDRs grafted onto IGKV1-39*01/IGHV1-69*08, scFv) (scFv)
scFv: DIQMTQSPSSLSASVGDRVTITCKASQSVINAVAWYQQKPGKAPKLLIYYASNRYTGVPSRFSGSGSGTDFTLTISSLQPEDFATYYCQQDYSSPYTFGGGTKLEIKRTVAARQEGGSGEGGSGESNAAAQVQLVQSGAEVKKPGSSVKVSCKASGYAFSSSWIHWVRQAPGQGLEWIGRIYPGDGDTNYTGKFKGRVTITADKSTSTAYMELSSLRSEDTAVYYCARRMITTQAAMDYWGQGTSVTVSSASTKAS
notes: Expressed in E. coli from pCHV101
[5]
  binding result: binds

B11: LCR1901_scFv (murine 1901 VH and VL reformatted as soluble scFv) (scFv)
scFv: SFVMTQTPKFLLVSAGDRVTITCKASQSVINAVAWYQQKPGQSPKLLIYYASNRYTGVPDRFTGNGYGTDFTFTISTVQAEDLAVYFCQQDYSSPYTFGGGTKLEIKRTVAARQEGGSGEGGSGESNAAAQVLLQQSGPELVKPGASVKISCKASGYAFSSSWIHWVKQRPGKGLEWIGRIYPGDGDTNYTGKFKGKATLTADKSSSTAYMQLSSLTSEDSAVYFCARRMITTQAAMDYWGQGTSVTVSSASTKAS
notes: Expressed in E. coli from pCHV101 and tested as culture; also called LCR1901_soluble scFv; parental soluble scFv
[6]
  binding result: binds

B12: LCR1901_Phage (murine 1901 scFv fused to the pIII coat protein of filamentous bacteriophage) (scFv)
scFv: SFVMTQTPKFLLVSAGDRVTITCKASQSVINAVAWYQQKPGQSPKLLIYYASNRYTGVPDRFTGNGYGTDFTFTISTVQAEDLAVYFCQQDYSSPYTFGGGTKLEIKRTVAARQEGGSGEGGSGESNAAAQVLLQQSGPELVKPGASVKISCKASGYAFSSSWIHWVKQRPGKGLEWIGRIYPGDGDTNYTGKFKGKATLTADKSSSTAYMQLSSLTSEDSAVYFCARRMITTQAAMDYWGQGTSVTVSSASTKAS
notes: not shown: pIII coat protein of filamentous bacteriophage from the pCHV101 phagemid
[7]
  binding result: binds
